Experimental data taken from patent US20130330359A1 (AbbVie / Abbott, published 2013).

T1: carrier free RGMa (R&D Systems) (UniProt Q96B86 48-422, limits assumed)
T1 construct: also called RGMa-CF
T1 sequence (looked up): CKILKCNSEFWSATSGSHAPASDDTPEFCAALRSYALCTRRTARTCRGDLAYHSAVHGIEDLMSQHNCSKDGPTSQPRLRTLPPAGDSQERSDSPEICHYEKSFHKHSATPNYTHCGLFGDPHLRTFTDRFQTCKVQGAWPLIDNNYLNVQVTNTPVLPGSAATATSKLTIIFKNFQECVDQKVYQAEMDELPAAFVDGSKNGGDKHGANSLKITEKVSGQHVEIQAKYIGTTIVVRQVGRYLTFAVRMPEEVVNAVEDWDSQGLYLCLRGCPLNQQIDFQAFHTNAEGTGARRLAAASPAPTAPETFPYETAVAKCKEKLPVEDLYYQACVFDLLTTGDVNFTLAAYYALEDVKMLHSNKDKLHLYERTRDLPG

T2: carrier free RGMb (R&D Systems) (UniProt Q6NW40 46-413, limits assumed)
T2 construct: also called RGMb-CF
T2 sequence (looked up): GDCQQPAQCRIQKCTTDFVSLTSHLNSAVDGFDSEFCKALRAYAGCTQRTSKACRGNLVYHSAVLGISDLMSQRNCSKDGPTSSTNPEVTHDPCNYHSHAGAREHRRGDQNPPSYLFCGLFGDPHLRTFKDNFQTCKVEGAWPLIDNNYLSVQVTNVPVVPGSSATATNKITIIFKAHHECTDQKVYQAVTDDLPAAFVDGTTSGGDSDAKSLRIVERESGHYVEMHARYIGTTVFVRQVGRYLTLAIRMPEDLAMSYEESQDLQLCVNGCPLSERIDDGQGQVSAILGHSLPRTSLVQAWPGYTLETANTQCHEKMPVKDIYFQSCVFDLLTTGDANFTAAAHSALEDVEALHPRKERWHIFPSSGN

T3: RGMc antigen: amino acids 33-391 of RGMc followed by human Fc (human, UniProt Q6ZVN8 33-391)
T3 construct: also called RGMc-huFc; RGMc-Fc; not shown: human Fc
T3 sequence: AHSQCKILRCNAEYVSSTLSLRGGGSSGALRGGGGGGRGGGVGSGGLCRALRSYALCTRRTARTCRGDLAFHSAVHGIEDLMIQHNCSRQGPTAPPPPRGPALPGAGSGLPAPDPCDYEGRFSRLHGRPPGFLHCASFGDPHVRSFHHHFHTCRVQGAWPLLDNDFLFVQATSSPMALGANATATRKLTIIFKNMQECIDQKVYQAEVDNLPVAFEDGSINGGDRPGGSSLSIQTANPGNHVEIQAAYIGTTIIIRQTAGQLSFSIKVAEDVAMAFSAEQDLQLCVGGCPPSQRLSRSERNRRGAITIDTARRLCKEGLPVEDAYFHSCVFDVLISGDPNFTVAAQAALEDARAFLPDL

T4: carrier free RGMc (R&D Systems) (human, UniProt Q6ZVN8 36-400)
T4 construct: also called RGMc-CF
T4 sequence (looked up): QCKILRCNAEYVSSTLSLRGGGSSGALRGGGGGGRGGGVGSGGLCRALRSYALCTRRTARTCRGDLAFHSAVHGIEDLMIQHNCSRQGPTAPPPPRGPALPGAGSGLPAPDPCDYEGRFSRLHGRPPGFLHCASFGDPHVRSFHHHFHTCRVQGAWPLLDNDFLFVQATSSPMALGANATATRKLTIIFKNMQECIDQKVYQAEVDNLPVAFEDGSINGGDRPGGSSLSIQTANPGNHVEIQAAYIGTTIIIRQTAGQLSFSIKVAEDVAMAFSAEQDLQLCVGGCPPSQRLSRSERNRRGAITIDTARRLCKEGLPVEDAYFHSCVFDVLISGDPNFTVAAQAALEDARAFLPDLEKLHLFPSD


Columns and labels:
[1] = biological target: T1, carrier free RGMa (R&D Systems); assay: EIA on coated carrier-free RGMa (summary of specificity)
Procedure: (§1) Clones were then tested for cross-reactivity with RGMa and RGMb by EIA. Carrier free RGMa, RGMb, or RGMc (R&D Systems) was coated on the solid phase of micro-titer EIA plates at 0.5 ug/mL. After the antigen had been coated on the solid phase, it was removed and any open binding sites on the plates were blocked using fish gel block solution. The wells were washed with distilled water following this incubation. Cell supernatants and control reagents were added to the blocked plates and allowed to incubate at room temperature for at least one hour. The negative control was a purified mouse mAb from a different antigen system. The positive control for RGMa, RGMb, & RGMc was a goat anti-RGMa, RGMb, or RGMc polyclonal antibody (R&D Systems). Following this incubation, the solutions were removed from the plates and they were washed with distilled water. Donkey anti-Goat IgG-HRPO diluted to approximately 200 ng/mL in block solution was added to the plates with the positive control test samples and goat anti-mouse IgG-HRPO (Jackson Immunoresearch) diluted to approximately 200 ng/mL in block solution was added to the plates with the fusion #1 test samples. All plates were allowed to incubate for 30 minutes at room temperature. The plates were washed with distilled water and o-phenylenediamine substrate was used as the chromogen to generate signal. Plates were read at 492 nm and the results were analyzed.

[2] = biological target: T2, carrier free RGMb (R&D Systems); assay: EIA on coated carrier-free RGMb (summary of specificity)
Procedure: as §1

[3] = biological target: T3, RGMc antigen: amino acids 33-391 of …; assay: direct EIA: RGMc-huFc coated at 1.0 ug/mL; supernatant diluted 1:125; goat anti-mouse IgG Fc-HRPO
Procedure: A mouse:human chimeric antibody or RGMc-huFc was coated on the solid phase of micro-titer EIA plates at 1.0 ug/mL. After the antigen had been coated on the solid phase, it was removed and any open binding sites on the plates were blocked using BSA block solution. The wells were washed with distilled water. Cell supernatants and control reagents were added to the blocked plates and allowed to incubate at room temperature for at least one hour. The negative control was a purified mAb from a different antigen system. The positive control for human IgG was a purified anti-hu IgG mAb developed against another antigen containing human IgG Fc carrier protein. The RGMc positive control is Novus mab 1C12. Following this incubation, the solutions were removed from the plates and they were washed with distilled water. Goat anti-mouse IgG Fc-HRPO (Jackson Immunoresearch) diluted to approximately 200 ng/mL in block solution was added to the plates and allowed to incubate for 30 minutes at room temperature. The plates were washed with distilled water and o-phenylenediamine substrate (Abbott Laboratories) was used as the chromogen to generate signal. Plates were read at 492 nm and the results were analyzed.

[4] = biological target: T1, carrier free RGMa (R&D Systems); assay: direct EIA: carrier-free RGMa coated at 0.5 ug/mL; supernatant diluted 1:125; goat anti-mouse IgG-HRPO
Procedure: as §1

[5] = biological target: T4, carrier free RGMc (R&D Systems); assay: direct EIA: carrier-free RGMc coated at 0.5 ug/mL; supernatant diluted 1:125; goat anti-mouse IgG-HRPO
Procedure: as §1

Row | binding result [1] | binding result [2] | absorbance at 492 nm [3] | absorbance at 492 nm [4] | absorbance at 492 nm [5] | Binder
1 | no binding | no binding | 1.55 | 0.07 | 1.58 | 1A-2989-187 (antibody, V domains shown) VH: EVQLQQSGAELVRSGASVKLSCTASGFNIRDFYIHWVKQRPEQGLEWLGWIDPENGDIEYAPKFQGKATMTADTSSNTAYLQLNSLTSEDTALYYCNGNGYYLDYWGQGTTLTVSS VL: not shown
2 | no binding | no binding | 1.66 | 0.08 | 1.34 | 1A-2860-475 (antibody, V domains shown, The parent line 1A-2860 and subclone 1A-2860-177 used in the assays are treated here as the same antibody; also called 1A-2860-177) VH: DVLLQESGPDLVKPSQSLSLTCTVTGYSISSGYSWHWIRQFPGNKLEWMAYIHYTGNTNYNPSLKSRISITRDTSKNQFFLHLNSVTTEDTATYYCALFGLSGFWGQGTLVTVSA VL: DVLMTQTPLSLPVSLGDQASISCRSSQTIVHSNGNTYLDWYLQKPGQSPKVLIYKVSNRFSGVPDRFSGSGSGTDFTLKISRVEAEDLGVYFCLQGSHVPWTFGGGTQLEIKR
3 | no binding | no binding | 2.8 | 0.09 | 2.53 | 1B-3363-715 (antibody, V domains shown, The parent line 1B-3363 and subclone 1B-3363-502 used in the assays are treated here as the same antibody; also called 1B-3363-502) VH: DVQLQESGPDLVKPSQSLSLTCTVTGYSITSGYSWHWIRQFPGNKLEWMGYIHYSGNTDYNPSLKSRISFTRDTSKNQFFLQLNSVTTEDTATYFCAIGTGPWGQGTTLTVSS VL: DVLMTQTPLSLPVSLGDQASISCRSSQNIVHSNGHTYLEWYLQKPGQSPKLLIYKVSNRFSGVPDRFSGSGSGTDFTLKISRVEAEDLGVYYCFQGSHVPWTFGGGTKLEIKR
